B1: 6-G23-F (antibody, V domains shown)
VH: QVQLVQSGAEVKKPGASVKVSCKASGYTFTSYYIHWVRQAPGQGLEWMGIIDPSDGSTNYAQKFQGRVTMTRDTSTSTVYMELSSLRSEDTAVYYCARDREYNYYGLDVWGQGTTVTVSS
VL: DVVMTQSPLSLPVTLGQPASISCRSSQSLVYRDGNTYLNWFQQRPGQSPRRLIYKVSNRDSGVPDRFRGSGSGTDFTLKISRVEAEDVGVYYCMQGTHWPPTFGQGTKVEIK
notes: also called 6-G23-F monoclonal antibody
B2: 7-I1-B (antibody, V domains shown)
VH: EVQLVESGGGLVKPGGSLRLSCAASGFTFSNTWMSWVRQAPGKGLEWVGRIKSKSDGGTTDYAAPVKGRFTISRDDSKNTLYLQMNSLKTEDTAVYYCTQYYWNSFDYWGQGTLVTVSS
VL: not shown
notes: also called 7-I1-B mAb
B3: 2-C8-A (antibody, V domains shown)
VH: EVQLVESGGGLVQPGGSQRLSCAASGFTFSSYWMNWVRQAPGKGLEWVANIKEDGSEKYYVDSVKGRFTISRDNAKNSLYLQMNSLRAEDTAVYYCARDPGWAPFDYWGQGTLVTVSS
VL: DIQMSQSPSSLSASVGDRVTITCRASQGISNYLAWFQQKPGKAPKSLIYAASSLQSGVPSKFSGSGSGTDFTLAISSLQPEDFATYYCQQYNSFPYTFGQGTTLEIK
notes: also called 2-C8-A monoclonal antibody
B4: 10-O18-A (antibody, V domains shown)
VH: QVQLQESGPGLVKPSETLSLTCTVSGGSINSYYWSWIRQPPGKGLEWIGYIFYSGITNYNPSLKSRVTISLDTSKNQFSLKLSSVTAADTAVYYCARIGVAGFYFDYWGQGTLVTVSS
VL: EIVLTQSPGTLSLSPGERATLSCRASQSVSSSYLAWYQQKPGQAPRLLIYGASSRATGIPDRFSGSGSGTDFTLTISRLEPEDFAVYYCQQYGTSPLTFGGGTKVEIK
notes: Hybridoma monoclonal from Ablexis AlivaMAb Kappa mice; it was captured on anti-mouse Fc sensors and detected with anti-mouse IgG / anti-mouse IgG1 reagents; also called 10-O18-A monoclonal antibody

biological target: T1, full-length cynomolgous DLL3 on HEK293 cells (cynomolgous, UniProt A0A2K5WSR1 27-585); experiment: flow cytometry, HEK293 cells transfected with full-length cynomolgous DLL3, mAb 10 µg/ml
T1 construct: also called 293 cyno DLL3
T1 sequence: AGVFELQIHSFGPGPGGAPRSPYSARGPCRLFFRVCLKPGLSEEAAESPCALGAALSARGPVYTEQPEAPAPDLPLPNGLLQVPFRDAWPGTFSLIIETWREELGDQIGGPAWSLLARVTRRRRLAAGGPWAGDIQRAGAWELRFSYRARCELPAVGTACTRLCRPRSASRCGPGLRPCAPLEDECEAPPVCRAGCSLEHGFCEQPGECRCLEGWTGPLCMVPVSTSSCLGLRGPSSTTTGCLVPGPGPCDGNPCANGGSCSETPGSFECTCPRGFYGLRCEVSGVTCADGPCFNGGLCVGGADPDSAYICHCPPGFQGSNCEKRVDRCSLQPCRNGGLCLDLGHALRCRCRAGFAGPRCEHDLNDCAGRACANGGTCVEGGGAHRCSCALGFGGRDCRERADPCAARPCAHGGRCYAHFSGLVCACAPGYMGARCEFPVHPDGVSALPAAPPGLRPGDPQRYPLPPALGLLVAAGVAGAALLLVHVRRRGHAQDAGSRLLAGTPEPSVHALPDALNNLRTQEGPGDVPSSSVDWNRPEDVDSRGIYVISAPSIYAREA
Protocol: (§1) For this purpose, HEK293 cells were transfected with plasmid DNA encoding full-length human, mouse or cynomolgous DLL3 and used in the experiment. Briefly […] transfected HEK293 cells or NCI-H82 primary cells were added in FACS buffer PBS 0.5% BSA to the wells of a 96 well U bottom plate and purified monoclonal added to 10 μg/ml. After 30 minutes incubation at 4° C. the cells were washed 3 times in FACS buffer and incubated with a PE labelled F(ab)2 anti-mouse IgG H and L 2nd stage. After another 30 minutes incubation at 4° C. the cells were washed three times in FACS buffer and analyzed on the flow cytometer. Data are presented at the ratio of the Mean Fluorescent Intensity for the monoclonal divided by the background staining with the 2nd stage.

| Binder | ratio of the Mean Fluorescent Intensity for the monoclonal divided by the background staining with the 2nd stage |
| --- | --- |
| B1 | 13.1 |
| B2 | 18.7 |
| B3 | 15 |
| B4 | 9.85 |

biological target: T2, full-length human DLL3 on cells (human, UniProt Q9NYJ7 27-618); experiment: cell-based or functional assay
T2 sequence: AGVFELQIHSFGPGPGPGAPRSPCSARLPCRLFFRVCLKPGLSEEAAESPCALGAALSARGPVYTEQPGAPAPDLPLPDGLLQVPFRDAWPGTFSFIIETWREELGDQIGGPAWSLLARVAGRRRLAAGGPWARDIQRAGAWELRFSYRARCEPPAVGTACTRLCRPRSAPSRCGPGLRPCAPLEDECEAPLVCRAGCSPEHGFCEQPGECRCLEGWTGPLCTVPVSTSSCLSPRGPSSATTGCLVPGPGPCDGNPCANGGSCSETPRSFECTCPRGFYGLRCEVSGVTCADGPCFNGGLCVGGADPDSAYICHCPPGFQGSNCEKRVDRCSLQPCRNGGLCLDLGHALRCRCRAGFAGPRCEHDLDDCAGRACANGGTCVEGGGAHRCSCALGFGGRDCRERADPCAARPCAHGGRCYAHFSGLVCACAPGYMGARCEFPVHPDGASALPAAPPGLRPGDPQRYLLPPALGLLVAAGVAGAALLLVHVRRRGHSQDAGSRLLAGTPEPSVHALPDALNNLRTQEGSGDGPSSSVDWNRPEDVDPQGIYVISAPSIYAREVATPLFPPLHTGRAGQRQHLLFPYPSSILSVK

| Binder | MFI Ratio (4°C / 37°C staining of NCI-H82 cells; relative measure of internalization) |
| --- | --- |
| B1 | 1.67 |
| B2 | 1.68 |
| B3 | 1.76 |
| B4 | 1.56 |

biological target: T2, full-length human DLL3 on cells; experiment: flow cytometry, NCI-H82 cells (endogenous human DLL3), mAb 10 µg/ml
Protocol: as §1

| Binder | ratio of the Mean Fluorescent Intensity for the monoclonal divided by the background staining with the 2nd stage |
| --- | --- |
| B1 | 11.1 |
| B2 | 19.2 |
| B3 | 11.9 |
| B4 | 9.4 |

biological target: T2, full-length human DLL3 on cells; experiment: flow cytometry, HEK293 cells transfected with full-length human DLL3, mAb 10 µg/ml
Protocol: as §1

| Binder | ratio of the Mean Fluorescent Intensity for the monoclonal divided by the background staining with the 2nd stage |
| --- | --- |
| B1 | 6.33 |
| B2 | 9.74 |
| B3 | 7.71 |
| B4 | 4.74 |

biological target: T3, full-length mouse DLL3 on HEK293 cells (mouse, UniProt O88516 33-584); experiment: flow cytometry, HEK293 cells transfected with full-length mouse DLL3, mAb 10 µg/ml
T3 construct: DLL3'; also called 293 mDLL3
T3 sequence: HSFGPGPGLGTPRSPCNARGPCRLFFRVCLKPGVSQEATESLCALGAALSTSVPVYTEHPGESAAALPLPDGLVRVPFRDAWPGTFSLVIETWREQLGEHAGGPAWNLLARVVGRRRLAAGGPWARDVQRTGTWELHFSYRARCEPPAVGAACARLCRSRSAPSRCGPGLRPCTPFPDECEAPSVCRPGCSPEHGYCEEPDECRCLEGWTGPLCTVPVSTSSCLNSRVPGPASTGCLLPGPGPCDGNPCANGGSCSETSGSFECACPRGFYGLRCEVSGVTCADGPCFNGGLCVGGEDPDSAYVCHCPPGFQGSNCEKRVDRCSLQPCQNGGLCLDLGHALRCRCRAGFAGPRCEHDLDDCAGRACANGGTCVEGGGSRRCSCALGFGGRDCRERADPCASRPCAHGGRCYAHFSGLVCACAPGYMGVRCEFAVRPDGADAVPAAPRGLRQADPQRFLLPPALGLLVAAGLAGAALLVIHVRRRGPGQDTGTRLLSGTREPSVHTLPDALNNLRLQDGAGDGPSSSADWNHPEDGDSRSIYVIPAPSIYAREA
Protocol: as §1

| Binder | ratio of the Mean Fluorescent Intensity for the monoclonal divided by the background staining with the 2nd stage |
| --- | --- |
| B1 | 3.97 |
| B2 | 4.7 |
| B3 | 1.5 |
| B4 | 0.99 |

biological target: T2, full-length human DLL3 on cells; experiment: cell-based or functional assay; remark: another data set of the same source

| Binder | Dy light Dy650 fluorescence in the quenching internalization assay on NCI-H82 cells (% of the Control Reference Monoclonal Antibody) |
| --- | --- |
| B1 | 76.5 % of the Control Reference Monoclonal Antibody |
| B2 | 70.1 % of the Control Reference Monoclonal Antibody |
| B3 | 62.9 % of the Control Reference Monoclonal Antibody |

biological target: T2, full-length human DLL3 on cells; experiment: cell-based or functional assay; remark: another data set of the same source

| Binder | FAB ZAP % SC16 Max Killing (NCI-H82 cells) |
| --- | --- |
| B1 | 94 % SC16 Max Killing |
| B2 | 97 % SC16 Max Killing |
| B3 | 89 % SC16 Max Killing |

Source: US20240115720A1 (Memorial Sloan Kettering, published 2024)
